According to patent US20090081707A1 (published 2009):

Key:
[1] = target: trkC variant s5a immunoadhesin (trkC Val297 to Thr420 replaced with trkA Ser277 to Val402) (human); test: saturation binding with 125I-NGF on immunoadhesin
[2] = target: trkC variant s5a immunoadhesin (trkC Val297 to Thr420 replaced with trkA Ser277 to Val402) (human); test: competitive displacement of labelled NGF on immunoadhesin
[3] = target: T1, trkA-IgG immunoadhesin (chimera of human trkA extracellular domain with human IgG-1 Fc) (human, UniProt P04629 33-408); test: competitive displacement of iodinated neurotrophin from trk-IgG
T1 construct: also called trkA-IgG chimera; native trkA; not shown: human IgG-1 heavy chain constant region from aspartic acid 216 of the hinge to residue 441 (Kabat numbering, 114 = first)

[4] = target: T2, trkB-IgG immunoadhesin (chimera of human trkB extracellular domain with human IgG-1 Fc) (human, UniProt Q16620 32-422); test: competitive displacement of labelled BDNF from trkB-IgG by unlabelled NT4/5
T2 construct: also called trkB full length receptor (as immunoadhesin); not shown: human IgG-1 heavy chain constant region from aspartic acid 216 of the hinge to residue 441 (Kabat numbering, 114 = first)

[5] = target: T3, trkC-IgG immunoadhesin (chimera of human trkC extracellular domain with human IgG-1 Fc) (human, UniProt Q16288 32-413); test: competitive displacement of labelled BDNF on immunoadhesin
T3 construct: also called trkC wild-type; trkC full length receptor (as immunoadhesin); not shown: human IgG-1 heavy chain constant region from aspartic acid 216 of the hinge to residue 441 (Kabat numbering, 114 = first)

[6] = target: T2, trkB-IgG immunoadhesin (chimera of …); test: competitive displacement of labelled BDNF from trkB-IgG by unlabelled BDNF
[7] = target: T2, trkB-IgG immunoadhesin (chimera of …); test: competitive displacement of labelled BDNF from trkB-IgG by unlabelled NT3

T2 sequence (Q16620 32-422 limits assumed, change not shown): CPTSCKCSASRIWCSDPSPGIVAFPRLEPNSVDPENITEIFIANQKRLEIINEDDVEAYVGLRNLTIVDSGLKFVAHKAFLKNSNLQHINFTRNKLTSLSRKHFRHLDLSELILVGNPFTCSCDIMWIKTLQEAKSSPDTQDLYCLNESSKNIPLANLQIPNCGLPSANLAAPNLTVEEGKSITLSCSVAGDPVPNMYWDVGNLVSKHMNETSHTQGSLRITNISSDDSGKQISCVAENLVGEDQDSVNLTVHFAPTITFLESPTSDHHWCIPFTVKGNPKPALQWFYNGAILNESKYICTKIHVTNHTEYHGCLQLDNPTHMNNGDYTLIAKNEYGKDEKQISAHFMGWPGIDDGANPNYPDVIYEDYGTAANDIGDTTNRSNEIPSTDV
trkC variant s5a immunoadhesin (trkC Val297 to Thr420 replaced with trkA Ser277 to Val402) (human), sequence (chain, as listed by the source mutant): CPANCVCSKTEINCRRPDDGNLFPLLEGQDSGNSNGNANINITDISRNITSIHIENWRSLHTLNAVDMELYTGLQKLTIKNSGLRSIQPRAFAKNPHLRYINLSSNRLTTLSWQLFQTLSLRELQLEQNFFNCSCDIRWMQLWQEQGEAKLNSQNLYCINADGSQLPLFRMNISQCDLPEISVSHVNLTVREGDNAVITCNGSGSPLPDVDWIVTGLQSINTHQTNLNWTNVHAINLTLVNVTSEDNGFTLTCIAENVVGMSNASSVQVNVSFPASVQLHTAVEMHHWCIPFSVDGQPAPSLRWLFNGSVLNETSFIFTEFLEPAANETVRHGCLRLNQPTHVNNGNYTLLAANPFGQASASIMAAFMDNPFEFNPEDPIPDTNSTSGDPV
T1 sequence (P04629 other isoform, or with tags, fused parts or gaps mutant limits assumed): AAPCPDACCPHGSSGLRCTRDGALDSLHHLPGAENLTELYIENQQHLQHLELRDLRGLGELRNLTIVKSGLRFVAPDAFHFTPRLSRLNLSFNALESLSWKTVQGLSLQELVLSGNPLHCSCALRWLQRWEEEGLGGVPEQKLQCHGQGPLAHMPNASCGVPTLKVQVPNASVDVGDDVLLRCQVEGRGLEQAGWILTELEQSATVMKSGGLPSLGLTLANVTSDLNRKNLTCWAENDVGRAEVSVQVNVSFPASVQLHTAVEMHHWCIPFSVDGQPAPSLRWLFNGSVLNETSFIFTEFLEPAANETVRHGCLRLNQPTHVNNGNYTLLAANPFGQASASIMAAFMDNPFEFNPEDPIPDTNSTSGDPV

Molecule: nerve growth factor (NGF) (from UniProt P01138 122-241) (ligand)
- Kd [1]: 0.0386 nM
- IC50 [2]: 0.0393 nM

B1: neurotrophin-4/5 (NT-4/5) (ligand)
chain: GVSETAPASRRGELAVCDAVSGWVTDRRTAVDLRGREVEVLGEVPAAGGSPLRQYFFETRCKADNAEEGGPGAGGGGCRGVDRRHWVSECKAKQSYVRALTADAQGRVGWRWIRIDTACVCTLLSRTGRA
notes: also called NT5
- binding result [3]: binds
- IC50 [4]: 0.2 nM

B2: brain-derived neurotrophic factor (BDNF) (ligand)
chain: HSDPARRGELSVCDSISEWVTAADKKTAVDMSGGTVTVLEKVPVSKGQLKQYFYETKCNPMGYTKEGCRGIDKRHWNSQCRTTQSYVRALTMDSKKRIGWRFIRIDTSCVCTLTIKRGR
notes: also called NT-2
- binding result [5]: no binding
- IC50 [6]: 0.081 nM

B3: neurotrophin-3 (NT-3) (ligand)
chain: YAEHKSHRGEYSVCDSESLWVTDKSSAIDIRGHQVTVLGEIKTGNSPVKQYFYETRCKEARPVKNGCRGIDDKHWNSQCKTSQTYVRALTSENNKLVGWRWIRIDTSCVCALSRKIGRT
- IC50 [7]: 18 nM
